Earlier results as cited in publication PMC10817355.

Target: BTLA (Homo sapiens) (UniProt Q7Z6A9)
Chain of UniProt Q7Z6A9 (Q7Z6A9 31-157): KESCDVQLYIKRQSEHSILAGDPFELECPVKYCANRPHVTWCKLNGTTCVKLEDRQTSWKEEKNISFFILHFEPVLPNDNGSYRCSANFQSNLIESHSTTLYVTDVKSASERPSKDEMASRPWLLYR

## HVEM(14-39) 14-39 (from UniProt Q92956)
  Kd: 102 nM
